The target in series [1] is Human serum albumin (HSA) (Homo sapiens) (UniProt P02768). The note with it: Nap-dU at all n positions, plate ELISA, buffer SB18, 37 C. A general note: ELISA stands for enzyme-linked immunosorbent assay.
Series [2] deals with K-RAS G12D G12D, P01116-2. As to conditions: Nap-dU at all n positions; plate ELISA, buffer SB18, 37 C, R2 97.1.

Read-outs that look alike come from different tables or passages of the source.

Usually Kd stands for the equilibrium constant for the complex coming apart. A low value points to tighter binding. “GACTAGCATAAGTCCGGATGGCAGCTTTATGCCG [AD006]” yielded a Kd in series [1] (R2 75.9) of 939 nM.
Take GCATAAGTCCGGATGGCAGCTTTATGC [AD008]: in series [2], the Kd stood at 287 nM. This counts as sub-micromolar.
On to “GCATAAGTCCGGATGGCAGCTTTATGCCGACC [AD007]”, for which the Kd in series [1] (R2 97.0) was 536 nM. That is a sub-micromolar value.

The record behind these values is US20240336926.
